Holding throughout (test): Octet RED 96
A general note: In BLI a coated tip is dipped into the sample, and binding shifts an interference pattern.

Assay [1] has as its target FcgRIIIaV.
Assay [2] has as its target FcgRIa.
The target in assay [3] is FcRn.

B1: BCD-100 IgG1* (antibody)
heavy: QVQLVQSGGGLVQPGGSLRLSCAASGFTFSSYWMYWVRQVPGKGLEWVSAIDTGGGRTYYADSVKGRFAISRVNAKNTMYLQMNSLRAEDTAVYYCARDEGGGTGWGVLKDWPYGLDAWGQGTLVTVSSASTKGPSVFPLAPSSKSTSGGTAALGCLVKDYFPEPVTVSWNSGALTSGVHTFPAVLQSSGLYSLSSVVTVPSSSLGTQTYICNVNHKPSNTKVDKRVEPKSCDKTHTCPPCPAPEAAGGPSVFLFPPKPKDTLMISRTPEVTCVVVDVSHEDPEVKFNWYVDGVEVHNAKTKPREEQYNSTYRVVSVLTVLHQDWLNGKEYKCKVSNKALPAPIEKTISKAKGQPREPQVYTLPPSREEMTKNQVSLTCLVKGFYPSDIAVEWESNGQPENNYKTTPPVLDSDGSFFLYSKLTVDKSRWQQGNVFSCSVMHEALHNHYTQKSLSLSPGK
light: QPVLTQPLSVSVALGQTARITCGGNNIGSKNVHWYQQKPGQAPVLVIYRDSNRPSGIPERFSGSNSGNTATLTISRAQAGDEADYYCQVWDSSTAVFGTGTKLTVLQRTVAAPSVFIFPPSDEQLKSGTASVVCLLNNFYPREAKVQWKVDNALQSGNSQESVTEQDSKDSTYSLSSTLTLSKADYEKHKVYACEVTHQGLSSPVTKSFNRGEC
The Kd is the equilibrium constant for the complex coming apart. Consider B1, for which the results for the Kd in assay [1], in assay [2] and in assay [3] were 740 nM, 750 nM and 9.6 nM, respectively.

For the origin of these results see patent US20190127478A1 (published 2019).
